This is an account of results in patent US12258605B2, “Alkane oxidation by modified hydroxylases” (The California Institute of Technology, priority 2005, dated 2025).

Assay [1] is described as follows: Octane hydroxylation (rate, ttn, regio- and enantioselectivity). The settings on record: for Octane ttn / Octane Rate: 1% ethanol; for Octane Rate: initial rate of octanol formation over 1 min; for Octane % 2-octanol: regioselectivity. The class given is biochemical. The procedure:
Cell lysates for high throughput screening were prepared as described previously (Peters et al., J. Am. Chem. Soc. 125:13442 (2003); incorporated by reference herein). High-throughput dimethyl ether (DME) screens were performed in 96 well plates as described previously. Improved mutants were selected based on an increased signal compared to 9-10A (for the saturation mutagenesis libraries) and 1-12G (for the recombination library). Reactions on octane and propane were analyzed by gas chromatography as described.
Rates of ethanol formation were measured over 30 min using gas chromatography (GC) coupled to an electron capture detector (ECD) and are reported as nmol ethanol/min/nmol enzyme. Errors are at most 10%. Total turnover number (ttn) was measured using GC after completion of the reaction and is reported as nmol product/nmol protein. Errors are at most 10%. Initial rates of propanol and octanol formation were measured over 1 min by GC and are reported as nmol product/min/nmol protein. Errors are at most 15%. The “ee” of 2-octanol (main product) was measured by GC; the favored enantiomer is listed in parenthesis. Wild-type P450 BM-3 primarily produces 3- and 4-octanol. The yields were not sufficient for the determination of ee for wt BM-3. Mutant 9-10A contains amino acid substitutions R47C, V78A K94I, P142S, T175I, A184V, F205C, S226R, H236Q, E252G, R255S, A290V, and L353V.
In Table 5 the product distribution is determined as ratio of a specific alcohol product to the total amount of all alcohol products (given in %). The product distribution for ketones was similar to alcohol product distribution. The numbers reported here are the (%) total of all ketones relative to total products (alcohols+ketones). The favored enantiomer is listed in parentheses.
For the data shown in Table 6 the initial NADPH consumption rates were measured over 15 seconds at 340 nm as nmol NADPH/min/nmol protein. Octane reactions contained 100 nM P450, 166 uM NADPH, and 4 mM octane in 1% ethanol and potassium phosphate buffer. […] Errors are at most 10%. Initial rates were measured by GC over 1 minute as nmol total products/min/nmol protein. Octane reactions contained 100 nM P450, 500 uM NADPH, and 4 mM octane in 1% ethanol and potassium phosphate buffer. Propane reactions contained 1 uM P450, 500 uM NADPH, and propane-saturated potassium phosphate buffer. Coupling was determined by ratio of product formation rate to NADPH consumption rate. Total turnover numbers were determined as nmol product/nmol enzyme. Octane reactions contained 10-25 nM P450, 500 uM NADPH, and 4 mM octane in 1% ethanol and potassium phosphate buffer. Propane reactions contained 10-25 nM protein, potassium phosphate buffer saturated with propane, and an NADPH regeneration system containing 100 uM NADP+, 2 U/mL isocitrate dehydrogenase, and 10 mM isocitrate.
Twenty-one single active site mutants with increased activity towards either of these substrates were isolated. Mutations that improved the activity were found at amino acid positions L75 (I, W), A78 (T, F, S), A82 (T, S, F, I, C, G, L), F87 (I, V, L), T88 (C), T260 (N, L, S) and A328 (L, F, M). The single active site mutants of 9-10A were characterized by their altered regioselectivity towards octane. Each of these mutations produces a characteristic octanol product distribution as a result of their presence altering the active site geometry above the heme cofactor. Transformations were carried out using cell lysates. The mutations were generated in variant 9-10A (with amino acid mutations R47C, V78A, K94I, P142S, T175I, A184V, F205C, S226R, H236Q, E252G, R255S, A290V, L353V). “Others” indicates over oxidation products (ketones and aldehydes) with a similar product distribution as the alcohols. “Rate” was measured as nmol octanol/nmol P450/minute. “TTN” was measured as nmol octanol/nmol P450 produced in 4 hour reaction.
Mutations are relative to variant 9-10A (described above). Wild-type has a valine at position 78. […]

The nature of assay [2]: High-throughput dimethyl ether (DME) screen. Type of assay: biochemical. As to conditions: relative to 35-E11; normalized to P450 concentration. An outline of the steps:
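Mutant P450 BM-3 variants expressed in E. coli and screened as cell lysates in KPi buffer (0.1 M, pH 8.0); dimethyl ether hydroxylation detected as formaldehyde with Purpald, absorbance 550 nm read after 1 hour. Activity relative to parent 35-E11 (8 wells each), normalised to P450 content by CO binding.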

Where a chain is given by its changes, count along the chain named. Names may count otherwise. Marks after values point to notes of the source that are not given here.

B1: 35-E11: P450 BM-3 variant, SEQ ID NO:7: 53-5H substitutions plus E464G and I710T (protein)
chain: TIKEMPQPKTFGELKNLPLLNTDKPVQALMKIADELGEIFKFEAPGCVTRYLSSQRLIKEACDESRFDKNLSQALKFFRDFSGDGLFTSWTHEINWKKAHNILLPSFSQQAMKGYHAMMVDIAVQLVQKWERLNADEHIEVSEDMTRLTLDTIGLCGFNYRFNSFYRDQPHPFIISMVRALDEVMNKLQRANPDDPAYDENKRQCQEDIKVMNDLVDKIIADRKARGEQSDDLLTQMLNGKDPETGEPLDDGNISYQIITFLIAGHETTSGLLSFALYFLVKNPHVLQKVVEEAARVLVDPVPSYKQVKQLKYVGMVLNEALRLWPTFPAFSLYAKEDTVLGGEYPLEKGDEVMVLIPQLHRDKTIWGDDVEEFRPERFENPSAIPQHAFKPFGNGQRACIGQQFALHEATLVLGMMLKHFDFEDHTNYELDIKETLTLKPEGFVVKAKSKKIPLGGIPSPSTGQSAKKVRKKAENAHNTPLLVLYGSNMGTAEGTARDLADIAMSKGFAPQVATLDSHAGNLPREGAVLIVTASYNGHPPDNAKQFVDWLDQASADEVKGVRYSVFGCGDKNWATTYQKVPAFIDETLAAKGAENIADRGEADASDDFEGTYEEWREHMWSDVAAYFNLDIENSEDNKSTLSLQFVDSAADMPLAKMHGAFSTNVVASKELQQPGSARSTRHLEIELPKEASYQEGDHLGVIPRNYEGTVNRVTARFGLDASQQIRLEAEEEKLAHLPLAKTVSVEELLQYVELQDPVTRTQLRAMAAKTVCPPHKVELEALLEKQAYKEQVLAKRLTMLELLEKYPACEMKFSEFIALLPSIRPRYYSISSSPRVDEKQASITVSVVSGEAWSGYGEYKGIASNYLAELQEGDTITCFISTPQSEFTLPKDPETPLIMVGPGTGVAPFRGFVQARKQLKEQGQSLGEAHLYFGCRSPHEDYLYQEELENAQSEGIITLHTAFSRMPNQPKTYVQHVMEQDGKKLIELLDQGAHFYICGDGSQMAPAVEATLMKSYADVHQVSEADARLWLQQLEEKGRYAKDVWAG
modifications: mutant P450 35-E11 protein sequence
Consider B1, for which, in assay [1], the Octane ttn is given as 8000 nmol product/nmol protein, the “Octane Rate” value is listed as 420 nmol product/min/nmol protein and the “Octane % 2-octanol” value is reported as 89%. Moreover, the Octane % ee in assay [1] (ee of 2-octanol (main product), favored enantiomer (S)) worked out at 65%. In assay [2], the “Relative DME activity in screen” value is listed as 1.

B2: 20-D3: P450 BM-3 variant, SEQ ID NO:11; 35-E11 plus H285R (protein)
chain: B1 chain with H285R
modifications: mutant P450 20-D3 protein sequence
notes: 35-E11 plus H285R
Take B2: the “Relative DME activity in screen” value in assay [2] was 1.7*.

B3: Wild-type BM-3: wild-type cytochrome P450 BM-3 from Bacillus megaterium, SEQ ID NO:1 (protein, listed as Bacillus megaterium)
chain: TIKEMPQPKTFGELKNLPLLNTDKPVQALMKIADELGEIFKFEAPGRVTRYLSSQRLIKEACDESRFDKNLSQALKFVRDFAGDGLFTSWTHEKNWKKAHNILLPSFSQQAMKGYHAMMVDIAVQLVQKWERLNADEHIEVPEDMTRLTLDTIGLCGFNYRFNSFYRDQPHPFITSMVRALDEAMNKLQRANPDDPAYDENKRQFQEDIKVMNDLVDKIIADRKASGEQSDDLLTHMLNGKDPETGEPLDDENIRYQIITFLIAGHETTSGLLSFALYFLVKNPHVLQKAAEEAARVLVDPVPSYKQVKQLKYVGMVLNEALRLWPTAPAFSLYAKEDTVLGGEYPLEKGDELMVLIPQLHRDKTIWGDDVEEFRPERFENPSAIPQHAFKPFGNGQRACIGQQFALHEATLVLGMMLKHFDFEDHTNYELDIKETLTLKPEGFVVKAKSKKIPLGGIPSPSTEQSAKKVRKKAENAHNTPLLVLYGSNMGTAEGTARDLADIAMSKGFAPQVATLDSHAGNLPREGAVLIVTASYNGHPPDNAKQFVDWLDQASADEVKGVRYSVFGCGDKNWATTYQKVPAFIDETLAAKGAENIADRGEADASDDFEGTYEEWREHMWSDVAAYFNLDIENSEDNKSTLSLQFVDSAADMPLAKMHGAFSTNVVASKELQQPGSARSTRHLEIELPKEASYQEGDHLGVIPRNYEGIVNRVTARFGLDASQQIRLEAEEEKLAHLPLAKTVSVEELLQYVELQDPVTRTQLRAMAAKTVCPPHKVELEALLEKQAYKEQVLAKRLTMLELLEKYPACEMKFSEFIALLPSIRPRYYSISSSPRVDEKQASITVSVVSGEAWSGYGEYKGIASNYLAELQEGDTITCFISTPQSEFTLPKDPETPLIMVGPGTGVAPFRGFVQARKQLKEQGQSLGEAHLYFGCRSPHEDYLYQEELENAQSEGIITLHTAFSRMPNQPKTYVQHVMEQDGKKLIELLDQGAHFYICGDGSQMAPAVEATLMKSYADVHQVSEADARLWLQQLEEKGRYAKDVWAG
In the case of B3, in assay [1], the “rate of octane hydroxylation” value amounted to 30 min⁻¹, the Octane ttn stood at 150 nmol product/nmol protein, the “Octane Rate” value is 30 nmol product/min/nmol protein and the “Octane % 2-octanol” value is listed as 17%.
